Assay [1] addresses post-fusion F protein (FΔFP) of RSV A2 strain (respiratory syncytial virus A2 strain) (UniProt P03420). The assay is described as follows: SPR (Biacore), F protein immobilised on CM5 chip, Fab as analyte. For orientation: SPR reads the build-up and loss of mass on a sensor chip optically.
The target of assay [2] is pre-fusion F protein DS-Cav1 of RSV A2 strain (respiratory syncytial virus A2 strain). The assay is described as above.
In assay [3] the target is F protein of RSV B-type clinical isolates (on virus) (respiratory syncytial virus B-type clinical isolates). Description: cell-based or functional assay.

As usually defined, the Kd is a measure of binding affinity in units of concentration. A high value points to weaker binding.

On to Palivizumab Fab, for which the Kd came to 4.4 nM in assay [1] and 11.4 nM in assay [2].
For the substance Palivizumab (antibody), the IC50 (ng/mL), neutralization of RSV B-type clinical isolates on Hep2 cells, flow cytometry in assay [3] is 1410 ng/mL.

For the origin of these results see patent US20240262894A1.
